From publication PMC8531335, “Point mutations in Candida glabrata 3-hydroxy-3-methylglutaryl-coenzyme A reductase (CgHMGR) decrease enzymatic activity and substrate/inhibitor affinity” (Scientific Reports, 2021)

System: CC(C)(COP(=O)(O)OP(=O)(O)OC[C@H]1O[C@@H](n2cnc3c(N)ncnc32)[C@H](O)[C@@H]1OP(=O)(O)O)[C@@H](O)C(=O)NCCC(=O)NCCSC(=O)C[C@@](C)(O)CC(=O)O
Assay: purified protein
Type: biochemical, Nakaseomyces glabratus
Conditions: NADPH co-substrate, Tris-HCl; HMG-CoA 1-64 µM; MBP fusion

Row | Substance | Km [µM]
1 | CgHMGR (Rec-MBP-CgHMGR, catalytic domain of Candida glabrata HMGR) (Nakaseomyces glabratus CBS 138; D805A) | 11.84
2 | CgHMGR (Rec-MBP-CgHMGR, catalytic domain of Candida glabrata HMGR) (Nakaseomyces glabratus CBS 138; E711Q) | 18
3 | CgHMGR (Rec-MBP-CgHMGR, catalytic domain of Candida glabrata HMGR) (Nakaseomyces glabratus CBS 138; E680Q) | 8.31
